Data as given in patent US20150203583A1.

Target: Fc receptor on monocytes of human PBMC effector cells (human)
Test: cell-based or functional assay

maximal ADCC activity on KIT225/K6 cells, against ZENAPAX DAC and DAC Penzberg: 30 to 40 % lower
Substance: DAC HYP (daclizumab, humanized IgG1 anti-CD25 monoclonal antibody made by the high yield process in NS0 cells)
